In patent US20240016931A1 (JIANGSU HENGRUI PHARMACEUTICALS, published 2024):
Changes are numbered by the printed parent chain. In names and notes the source's numbering stands. One block for each binder: values may come before it.

Experiments:
[1] = target: T1, Fc-tagged human TSLP antigen (huTSLP-Fc) (human, biotin-labeled in the blocking assays); test: competition ELISA: biotin-huTSLP-Fc binding to coated human-TSLPR-Fc-ECD
T1 construct: whole entry named; also called recombinant human TSLP-Fc

[2] = target: T2, His-tagged human TSLP antigen (huTSLP-his) (human); test: Biacore T200, antibody captured on Protein A chip, antigen in flow, 1:1 Langmuir
T2 construct: Secreted from HEK293E and purified on nickel; whole entry named; also called Human TSLP-his

[3] = target: T3, His-tagged cynomolgus monkey TSLP antigen (cynoTSLP-His) (cynomolgus monkey); test: as above
T3 construct: whole entry named
T3 chain: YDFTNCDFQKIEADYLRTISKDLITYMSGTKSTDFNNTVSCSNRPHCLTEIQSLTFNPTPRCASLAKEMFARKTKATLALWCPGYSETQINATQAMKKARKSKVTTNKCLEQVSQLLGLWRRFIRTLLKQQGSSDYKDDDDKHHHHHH

[4] = target: T4, native TSLP (human, UniProt Q969D9 29-159); test: cell-based or functional assay
[5] = target: T4, native TSLP; test: cell-based or functional assay; remark: listed apart in the source
[6] = target: T1, Fc-tagged human TSLP antigen (huTSLP-Fc); test: competition FACS: biotin-TSLP-Fc binding to CHOK1-TSLPR/IL-7R cells
[7] = target: T2, His-tagged human TSLP antigen …; test: Biacore (SPR)
[8] = target: T1, Fc-tagged human TSLP antigen (huTSLP-Fc); test: cell-based or functional assay
[9] = target: T2, His-tagged human TSLP antigen …; test: ELISA on human TSLP
[10] = target: T2, His-tagged human TSLP antigen …; test: ELISA, coated huTSLP-his;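 also: binding of antibodies to plate-bound TSLP read as absorbance at 450 nm after TMB colour development, EC50 derived from binding curves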
[11] = target: T1, Fc-tagged human TSLP antigen (huTSLP-Fc); test: competition ELISA: blocks TSLP binding to TSLP receptor
[12] = target: T1, Fc-tagged human TSLP antigen (huTSLP-Fc); test: competition ELISA: plate coated with human-TSLPR-Fc-ECD, biotin-labeled huTSLP-Fc premixed with the antibody dilution series, streptavidin-peroxidase detection, OD450; blocked ligand-receptor pair is TSLP and TSLPR

IC50 [1]: 0.504 nM | Kd [2]: 0.000903 nM | Kd [3]: 0.0304 nM | IC50 (nM), inhibition of native TSLP-induced proliferation of BaF3-TLSPR/IL-7R cells [4]: 0.0228 nM | activity in inhibiting native TSLP-stimulated proliferation of BaF3, relative to AMG157 [5]: 100 times | IC50 [6]: 0.187 nM | Kd [7]: 0.000903 nM | IC50 (nM), inhibition of TSLP-induced proliferation of BaF3 cells overexpressing TSLPR/IL-7R [8]: 0.409 nM
B1: hu179-33 (antibody, human IgG1, kappa, V domains shown)
VH: EVQLVQSGAEVKKPGSSVKVSCKASGYTFSNYLIEWVRQAPGQGLEWIGVIDPGVGDTNYNENFKGRATLTADKSTSTAYIELSSLRSEDTAVYYCAREDNTGTAFDYWGQGTTVTVSS
VL: SIVMTQTPLSLSVTPGQPASISCKASQSVSSDVTWYLQKPGQSPQLLIYYVSEHYTGVPDRFSGSGYGTDFTLKISRVEAEDVGVYYCQQHHRFPLTFGQGTKLEIKR
notes: IgG1-YTE, kappa; also called hu179VH3-N55V + hu179VL8-N53E

binding result [9]: binds
B2: hu3-11 (antibody, human IgG1, kappa, V domains shown)
VH: EVQLVQSGAEVKKPGASVKVSCKASGYTFTDDYMNWVRQAPGQRLEWMGIISPYNGGTSYNQKFKGRVTLTVDKSASTAYMELSSLRSEDTAVYYCAREDYDYDGYAMDYWGQGTTVTVSS
VL: EIVLTQSPATLSLSPGERATLSCRASSSVSYMHWYQQKPGQAPRPWIYATSNLASGVPARFSGSGSGTSYTLTISRLEPEDFAVYYCQQWSSDRTFGGGTKVEIKR
notes: IgG1-YTE, kappa; also called hu3VH2-H110Y + hu3VL4-N93D

EC50 [10]: 0.148 nM | IC50 [1]: 0.497 nM | Kd [2]: 0.001 nM | Kd [3]: 0.34 nM | IC50 (nM), inhibition of native TSLP-induced proliferation of BaF3-TLSPR/IL-7R cells [4]: 0.289 nM | IC50 [6]: 0.133 nM | IC50 (nM), inhibition of TSLP-induced proliferation of BaF3 cells overexpressing TSLPR/IL-7R [8]: 0.444 nM
B3: hu3-13 (antibody, human IgG1, kappa, V domains shown)
VH: B2 VH
VL: B2 VL with W90S, S91D, D93G, T95E
notes: IgG1-YTE, kappa; also called hu3VH2-H110Y + hu3VL6

EC50 [10]: 0.516 nM | IC50 [11]: 0.427 nM
B4: Ch199 (antibody, human IgG1, kappa, V domains shown)
VH: QVQLQQSGPQLVRPGASVKISCKASGYSFTTYWMHWVKQRPGQGLEWIGMIDPSDSETTLIQKFKDKATLTVDKSSSTAYMQLSSPTSEDSAVYYCARTLDGYYDYWGQGTTLTVSS
VL: DIQMTQSPASLSASVGETVTITCRASENIYSYLAWYQQKQGKSPQLLVYFAKTLAEGVPSRFSGSVSGTQFSLKINSLQPEDFGSYYCQHHYGTPWTFGGGTKLEIKR
notes: murine variable regions on human IgG1-YTE / kappa; also called Chi 99; chimeric antibody corresponding to mab199

EC50 [10]: 0.722 nM | Kd [2]: 0.00812 nM | Kd [3]: 0.00922 nM | IC50 (read off the curve) [12]: ~0.5 nM | IC50 [6]: 0.207 nM | Kd [7]: 0.00812 nM | IC50 (nM), inhibition of TSLP-induced proliferation of BaF3 cells overexpressing TSLPR/IL-7R [8]: 0.573 nM
B5: AMG157 (tezepelumab, anti-TSLP antibody) (antibody, human IgG2, lambda, V domains shown)
VH: QMQLVESGGGVVQPGRSLRLSCAASGFTFRTYGMHWVRQAPGKGLEWVAVIWYDGSNKHYADSVKGRFTITRDNSKNTLNLQMNSLRAEDTAVYYCARAPQWELVHEAFDIWGQGTMVTVSS
VL: SYVLTQPPSVSVAPGQTARITCGGNNLGSKSVHWYQQKPGQAPVLVVYDDSDRPSWIPERFSGSNSGNTATLTISRGEAGDEADYYCQVWDSSSDHVVFGGGTKLTVLG
notes: positive control

IC50 [1]: 0.519 nM | Kd [2]: 0.005 nM | Kd [3]: 1.95 nM | IC50 (nM), inhibition of native TSLP-induced proliferation of BaF3-TLSPR/IL-7R cells [4]: 1.53 nM | IC50 [6]: 0.137 nM | IC50 (nM), inhibition of TSLP-induced proliferation of BaF3 cells overexpressing TSLPR/IL-7R [8]: 0.43 nM
B6: hu119-30 (antibody, human IgG1, kappa, V domains shown)
VH: EAQLVQSGAEVKKPGSSVKVSCKASGFTFSTYNMHWVRQAPGQGLEWIGAIYPGNGETSYNQKFKDRATLTVDKSTRTAYMELSSLRSEDTAVYYCAREDDYGEGYFDVWGQGTTVTVSS
VL: DIVLTQSPATLSLSPGERATLSCRASESVDSSGLSFMHWYQQKPGQPPRLLLYRASNLGSGIPARFSGSGSGTDFTLTISSLEPEDFAVYYCQQINTDPLTFGQGTKLEIKR
notes: IgG1-YTE, kappa; also called hu119VH8 + hu119VL6-N31S

IC50 [11]: 0.354 nM
B7: hu199-27 (antibody, human IgG1, kappa, V domains shown)
VH: EVQLVQSGAEVKKPGASVKVSCKASGYTFTTYWMHWVKQAPGQGLEWMGMIDPSDSETTLIQKFKDKVTMTVDKSTSTAYMELSSLRSEDTAVYYCARTLDGYYDYWGQGTTVTVSS
VL: DIQMTQSPSSLSASVGDRVTITCRASENIYSYLAWYQQKPGKSPQLLVYFAKTLAEGVPSRFSGSGSGTQFTLTISSLQPEDFATYYCQHHYGTPWTFGGGTKVEIKR
notes: IgG1-YTE, kappa

IC50 [11]: 0.711 nM
B8: hu199-34 (antibody, human IgG1, kappa, V domains shown)
VH: B7 VH with M70L
VL: B7 VL with S43A, Q45K, V48I, G66V, Q70D
notes: IgG1-YTE, kappa

IC50 [11]: 0.462 nM
B9: hu199-28 (antibody, human IgG1, kappa, V domains shown)
VH: B7 VH
VL: B7 VL with S43A, Q45K, V48I, G66V, Q70D
notes: IgG1-YTE, kappa

IC50 [11]: 0.287 nM
B10: hu199-32 (antibody, human IgG1, kappa, V domains shown)
VH: B7 VH with M70L
VL: B7 VL with S43A, Q45K, Q70D
notes: IgG1-YTE, kappa

IC50 [11]: 0.304 nM
B11: hu199-31 (antibody, human IgG1, kappa, V domains shown)
VH: B7 VH with M70L
VL: B7 VL with S43A, Q45K, V48I, Q70D
notes: IgG1-YTE, kappa

IC50 [1]: 0.569 nM | Kd [2]: 0.0105 nM | Kd [3]: 0.0172 nM | IC50 [11]: 0.727 nM | IC50 [6]: 0.227 nM | IC50 (nM), inhibition of TSLP-induced proliferation of BaF3 cells overexpressing TSLPR/IL-7R [8]: 0.477 nM
B12: hu199-36 (antibody, human IgG1, kappa, V domains shown)
VH: B7 VH with M70L
VL: B7 VL with G66V
notes: IgG1-YTE, kappa

IC50 [11]: 0.485 nM
B13: hu199-35 (antibody, human IgG1, kappa, V domains shown)
VH: B7 VH with M70L
VL: B7 VL with S43A, Q45K, G66V, Q70D
notes: IgG1-YTE, kappa

IC50 [11]: 0.349 nM
B14: hu199-30 (antibody, human IgG1, kappa, V domains shown)
VH: B7 VH
VL: B7 VL with G66V
notes: IgG1-YTE, kappa

IC50 [11]: 0.554 nM
B15: hu199-29 (antibody, human IgG1, kappa, V domains shown)
VH: B7 VH
VL: B7 VL with S43A, Q45K, G66V, Q70D
notes: IgG1-YTE, kappa

IC50 [11]: 0.205 nM
B16: hu199-33 (antibody, human IgG1, kappa, V domains shown)
VH: B7 VH with M70L
VL: B7 VL
notes: IgG1-YTE, kappa
